What was measured:
[1] = molecular target: T1, beta amyloid peptide (Aβ) (human, UniProt P05067 672-713, limits assumed); assay: average of ELISA and BIAcore results
T1 construct: also called A-beta; β-amyloid peptide

[2] = molecular target: T1, beta amyloid peptide (Aβ); assay: BIAcore
[3] = molecular target: T1, beta amyloid peptide (Aβ); assay: ELISA competitive binding assay with biotinylated 3D6

fold loss of binding affinity against 3D6 [1]: ~3 fold
Kd [2]: 2.06 nM
koff [2]: 0.000382 s⁻¹
kon [2]: 185000 M⁻¹ s⁻¹
fold less binding affinity than 3D6 [3]: ~6 fold
B1: humanized 3D6 version 1 (antibody, V domains shown)
VH: EVQLLESGGGLVQPGGSLRLSCAASGFTFSNYGMSWVRQAPGKGLEWVASIRSGGGRTYYSDNVKGRFTISRDNAKNSLYLQMNSLRAEDTALYYCVRYDHYSGSSDYWGQGTLVTVSS
VL: YVVMTQSPLSLPVTPGEPASISCKSSQSLLDSDGKTYLNWLLQKPGQSPQRLIYLVSKLDSGVPDRFSGSGSGTDFTLKISRVEAEDVGVYYCWQGTHFPRTFGQGTKVEIK
notes: Human constant regions (light chain vector pCMV-cK); also called humanized 3D6v1; h3D6v1

Reference: patent publication US20040087777A1 (NEURALAB, published 2004)
